Target: myosin S2 tail domain (UniProt P12883)
Experiment: MST; Monolith NT.115; 100 nmol/L Alexa647-labeled protein fixed, partner titrated (which was labeled is not told); 20 mmol/L Mops pH 7, 1 mmol/L MgCl2, 50 mmol/L KCl, 1 mmol/L DTT, 0.05% Tween-20; various nucleotides, with and without F10

Chain of myosin S2 tail domain (P12883 whole entry, the tested form may be a part): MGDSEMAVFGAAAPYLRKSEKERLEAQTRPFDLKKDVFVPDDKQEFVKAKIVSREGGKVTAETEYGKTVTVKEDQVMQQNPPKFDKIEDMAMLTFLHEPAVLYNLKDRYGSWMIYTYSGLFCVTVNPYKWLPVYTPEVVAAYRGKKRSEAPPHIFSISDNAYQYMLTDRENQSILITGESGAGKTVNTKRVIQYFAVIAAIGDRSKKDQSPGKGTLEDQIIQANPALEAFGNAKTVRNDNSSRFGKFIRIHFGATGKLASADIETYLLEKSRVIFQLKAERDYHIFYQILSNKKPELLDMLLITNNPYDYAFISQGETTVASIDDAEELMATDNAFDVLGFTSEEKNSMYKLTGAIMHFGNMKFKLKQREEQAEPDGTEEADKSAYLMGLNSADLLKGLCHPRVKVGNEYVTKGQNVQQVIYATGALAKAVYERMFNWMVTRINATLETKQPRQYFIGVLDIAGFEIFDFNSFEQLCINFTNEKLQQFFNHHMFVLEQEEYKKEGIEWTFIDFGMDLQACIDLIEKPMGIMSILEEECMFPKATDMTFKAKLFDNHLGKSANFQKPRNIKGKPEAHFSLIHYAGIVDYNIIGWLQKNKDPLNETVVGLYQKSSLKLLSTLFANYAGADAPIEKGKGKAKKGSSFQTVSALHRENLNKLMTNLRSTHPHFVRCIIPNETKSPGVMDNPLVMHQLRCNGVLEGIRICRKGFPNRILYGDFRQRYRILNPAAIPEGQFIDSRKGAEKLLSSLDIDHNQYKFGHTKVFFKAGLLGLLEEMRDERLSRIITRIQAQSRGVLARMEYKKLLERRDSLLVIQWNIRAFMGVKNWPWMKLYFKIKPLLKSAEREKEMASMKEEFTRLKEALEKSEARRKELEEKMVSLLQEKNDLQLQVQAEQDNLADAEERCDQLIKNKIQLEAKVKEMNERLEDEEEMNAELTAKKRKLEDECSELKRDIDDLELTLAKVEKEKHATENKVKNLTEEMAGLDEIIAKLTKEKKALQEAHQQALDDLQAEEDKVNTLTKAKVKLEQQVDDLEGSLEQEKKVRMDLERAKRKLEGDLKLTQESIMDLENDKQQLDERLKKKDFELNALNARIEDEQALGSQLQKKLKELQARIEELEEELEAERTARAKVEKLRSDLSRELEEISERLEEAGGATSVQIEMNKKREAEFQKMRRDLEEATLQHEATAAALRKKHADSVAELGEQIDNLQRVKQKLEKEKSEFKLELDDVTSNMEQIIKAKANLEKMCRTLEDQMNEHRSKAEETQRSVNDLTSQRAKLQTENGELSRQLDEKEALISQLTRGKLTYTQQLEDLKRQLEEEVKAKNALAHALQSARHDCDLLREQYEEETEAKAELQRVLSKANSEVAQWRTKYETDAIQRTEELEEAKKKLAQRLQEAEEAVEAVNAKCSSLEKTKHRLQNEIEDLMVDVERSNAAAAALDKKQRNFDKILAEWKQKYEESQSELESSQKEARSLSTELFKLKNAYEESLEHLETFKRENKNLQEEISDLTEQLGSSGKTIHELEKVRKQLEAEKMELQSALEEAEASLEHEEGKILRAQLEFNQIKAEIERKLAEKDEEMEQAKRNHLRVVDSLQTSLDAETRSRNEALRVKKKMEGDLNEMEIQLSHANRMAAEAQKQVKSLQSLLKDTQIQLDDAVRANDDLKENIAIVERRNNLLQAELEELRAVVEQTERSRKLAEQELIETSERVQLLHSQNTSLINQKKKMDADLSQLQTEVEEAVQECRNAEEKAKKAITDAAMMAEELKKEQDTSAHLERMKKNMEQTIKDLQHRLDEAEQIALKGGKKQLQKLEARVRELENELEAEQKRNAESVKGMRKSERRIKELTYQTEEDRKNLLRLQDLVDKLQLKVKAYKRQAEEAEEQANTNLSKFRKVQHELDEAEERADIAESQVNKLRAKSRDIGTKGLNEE

Kd: 15 µM
Substance: bovine β-cardiac myosin S1 (from UniProt Q9BE39 1-1935; P85100 1-199) (domain or fragment)

From paper PMC10673995, “Discovery of a novel cardiac-specific myosin modulator using artificial intelligence-based virtual screening” (Nature Communications, 2023)
